The results in this text go back to patent US20260097113A1 (Pfizer, published 2026).

Changes are numbered by the printed parent chain.

Test [1] addresses RSV A + RSV B bivalent composition (RSV subtype A; RSV subtype B). Kind of test: AM14 Fab titration by SEC; High-Slow 1 cycle; 1 M 25°C. A general note: In gel filtration, larger molecules generally elute earlier.
The target is the same in test [2]. Kind of test: AM14 Fab titration by SEC; High-Slow 2 cycle; 1 M 40°C.
The target is the same in test [3]. In words: AM14 Fab titration by SEC; High-Slow 2 cycle; 8 M 2-8°C.
For test [4] the target is unchanged. In words: AM14 Fab titration by SEC; High-Slow 2 cycle; 3 M 40°C.
The target is the same in test [5]. In words: AM14 Fab titration by SEC; High-Slow 2 cycle; 8 M 40°C.
The target of test [6] is T1, RSV F protein of subtype A comprising a polypeptide of SEQ ID NO: 1 and a polypeptide of SEQ ID NO: 2 (RSV subtype A, UniProt P11209 137-513; P03420 26-109).
T1 construct: Stabilized prefusion F trimer made of three F2-F1 heterodimers; Produced recombinantly in CHO cells; also called RSV A; RSVA
T1 chain 1: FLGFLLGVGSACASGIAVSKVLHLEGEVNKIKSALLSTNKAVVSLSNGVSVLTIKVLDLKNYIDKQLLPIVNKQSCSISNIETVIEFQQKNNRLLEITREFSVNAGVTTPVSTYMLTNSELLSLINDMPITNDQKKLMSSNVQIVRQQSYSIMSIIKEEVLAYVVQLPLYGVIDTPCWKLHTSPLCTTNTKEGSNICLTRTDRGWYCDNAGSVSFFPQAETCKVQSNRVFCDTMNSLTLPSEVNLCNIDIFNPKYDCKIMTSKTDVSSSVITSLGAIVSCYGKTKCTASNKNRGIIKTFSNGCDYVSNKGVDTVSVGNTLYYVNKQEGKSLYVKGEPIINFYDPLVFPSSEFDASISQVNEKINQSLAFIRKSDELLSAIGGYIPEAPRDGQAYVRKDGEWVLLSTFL
T1 chain 2: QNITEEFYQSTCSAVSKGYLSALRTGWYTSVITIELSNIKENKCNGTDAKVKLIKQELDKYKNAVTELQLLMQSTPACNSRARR
In words: AM14 ELISA; F2 (pH 8, 0 mM NaCl, 0% sucrose); 1 wk 5°C. (ELISA stands for enzyme-linked immunosorbent assay.)

The target of test [7] is T1, RSV F protein of subtype A comprising a …. Kind of test: AM14 ELISA; F10 (pH 7, 50 mM NaCl, 4.5% sucrose); 2 wk 25°C.
Test [8] shares this target. In words: AM14 ELISA; F2 (pH 8, 0 mM NaCl, 0% sucrose); 2 wk 25°C.
The target of test [9] is T2, RSV F protein comprising a polypeptide of SEQ ID NO: 3 and a polypeptide of SEQ ID NO: 4 (RSV subtype B, UniProt O36634 137-513; O36634 26-109).
T2 construct: also called RSV B; RSVB
T2 chain 1: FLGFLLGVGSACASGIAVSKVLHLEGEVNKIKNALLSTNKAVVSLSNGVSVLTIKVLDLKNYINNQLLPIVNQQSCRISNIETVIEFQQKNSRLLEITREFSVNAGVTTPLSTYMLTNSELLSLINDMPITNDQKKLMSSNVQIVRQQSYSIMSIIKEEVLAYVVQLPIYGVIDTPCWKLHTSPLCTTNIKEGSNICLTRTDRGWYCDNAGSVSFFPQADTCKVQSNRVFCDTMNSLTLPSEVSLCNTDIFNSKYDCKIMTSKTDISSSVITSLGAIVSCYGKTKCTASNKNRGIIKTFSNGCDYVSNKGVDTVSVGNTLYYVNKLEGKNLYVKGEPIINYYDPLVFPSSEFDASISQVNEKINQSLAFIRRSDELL
T2 chain 2: T1 chain 2 with K17R, L20F, N42T, A49T, S74N, S80N
Kind of test: AM14 prefusion assay relative to standard; RSV B 480 µg/mL, 2% sucrose + 4% mannitol; pre-lyo.

Test [10] has as its target T1, RSV F protein of subtype A comprising a …. In words: AM14 ELISA; F15 (pH 6, 0 mM NaCl, 9% sucrose); 2 wk 5°C.
Test [11] shares this target. Kind of test: AM14 ELISA; F11 (pH 7, 50 mM NaCl, 9.0% sucrose); 1 wk 25°C.
The target is the same in test [12]. Kind of test: AM14 ELISA; F16 (pH 6, 0 mM NaCl, 0% sucrose); 2 wk 5°C.
Test [13] has the same target. In words: AM14 ELISA; F9 (pH 8, 50 mM NaCl, 4.5% sucrose); 1 wk 25°C.
For test [14] the target is unchanged. Kind of test: AM14 ELISA; F7 (pH 6, 100 mM NaCl, 0% sucrose); 1 wk 25°C.

Turning to AM14 Fab, the Prefusion Content (%) turned out to be 51% in test [1]; 52% in test [2]; 72% in test [3]; 59% in [4]; 61% in test [5].

B1: AM14 (trimeric prefusion specific antibody of the AM14 ELISA) (antibody, V domains shown)
VH: EVQLVESGGGVVQPGRSLRLSCAASGFSFSHYAMHWVRQAPGKGLEWVAVISYDGENTYYADSVKGRFSISRDNSKNTVSLQMNSLRPEDTALYYCARDRIVDDYYYYGMDVWGQGATVTVSS
VL: DIQMTQSPSSLSASVGDRVTITCQASQDIKKYLNWYHQKPGKVPELLMHDASNLETGVPSRFSGRGSGTDFTLTISSLQPEDIGTYYCQQYDNLPPLTFGGGTKVEIKR
notes: Antibody as used in the AM14 ELISA, detected with an HRP-labeled secondary antibody
In the case of B1, the “AM14 prefusion content (%), relative to standard” value came to 86% in test [6]; 81% in test [7]; 56% in test [8]; 90% in [9]; 84% in test [10]; 91% in test [11]. The “AM14 prefusion content (%), relative to standard” value in [12] turned out to be 67%; in test [13] it was 84%; in [14] it was 75%.
